Experimental data published in the array DNA melting data of Ke et al..

assay: melting temperature; melt of duplexes; conditions: sodium 0.0675 M; strand 1 µM

Compared with “CGACGTGCGCTATGTGCTG+CAGCACATCGAGCACGTCG ((((((((.(.((((((((+)))))))).).))))))))”, “CGACGTGCGCTATGTGCTG+CAGCACATCGCGCACGTCG ((((((((((.((((((((+)))))))).))))))))))” is higher in Tm: 53.1 °C for the first, 60.1 °C for the second.

Compared with “CGACGTGCGCTATGTGCTG+CAGCACATCTAGCACGTCG ((((((((...((((((((+))))))))...))))))))”, “CGACGTGCGCTATGTGCTG+CAGCACATGAAGCACGTCG ((((((((...((((((((+))))))))...))))))))” is higher in Tm: 50.4 °C for the first, 53.9 °C for the second.

Compared with “CGACGTGCGCTATGTGCTG+CAGCACATGACGCACGTCG (((((((((..((((((((+))))))))..)))))))))”, “CGACGTGCGCTATGTGCTG+CAGCACATGCGGCACGTCG ((((((((...((((((((+))))))))...))))))))” is higher in Tm: 52.4 °C for the first, 54 °C for the second.

Going from “CGACGTGCGCTATGTGCTG+CAGCACATGGCGCACGTCG ((((((((((.((((((((+)))))))).))))))))))” to “CGACGTGCGCTATGTGCTG+CAGCACATGGGGCACGTCG ((((((((.(.((((((((+)))))))).).))))))))”, the Tm falls from 63.2 °C to 56.7 °C.

Compared with “CGACGTGCGCTATGTGCTG+CAGCACATGGTGCACGTCG ((((((((.(.((((((((+)))))))).).))))))))”, “CGACGTGCGCTATGTGCTG+CAGCACATGTAGCACGTCG ((((((((...((((((((+))))))))...))))))))” is lower in Tm: 54.6 °C for the first, 52.5 °C for the second.

Compared with “CGACGTGCGCTATGTGCTG+CAGCACATGTGGCACGTCG ((((((((...((((((((+))))))))...))))))))”, “CGACGTGCGCTATGTGCTG+CAGCACATTAAGCACGTCG ((((((((...((((((((+))))))))...))))))))” is higher in Tm: 50.8 °C for the first, 52.8 °C for the second.

First: CGACGTGCGCTATGTGCTG+CAGCACATTCTGCACGTCG ((((((((...((((((((+))))))))...))))))))
Second: CGACGTGCGCTATGTGCTG+CAGCACATTGCGCACGTCG ((((((((((.((((((((+)))))))).))))))))))
The Tm of the first is lower: 48.6 °C for the first, 61 °C for the second.

Compared with “CGACGTGCGCTATGTGCTG+CAGCACATTTAGCACGTCG ((((((((...((((((((+))))))))...))))))))”, “CGACGTGCGGAATGTGCTG+CAGCACATAAAGCACGTCG ((((((((...((((((((+))))))))...))))))))” is higher in Tm: 51.6 °C for the first, 55.5 °C for the second.

First: CGACGTGCGGAATGTGCTG+CAGCACATACGGCACGTCG ((((((((.(.((((((((+)))))))).).))))))))
Second: CGACGTGCGGAATGTGCTG+CAGCACATACTGCACGTCG ((((((((.(.((((((((+)))))))).).))))))))
The Tm of the first is lower: 53.3 °C for the first, 54.3 °C for the second.

Going from “CGACGTGCGGAATGTGCTG+CAGCACATATAGCACGTCG ((((((((...((((((((+))))))))...))))))))” to “CGACGTGCGGAATGTGCTG+CAGCACATATGGCACGTCG ((((((((...((((((((+))))))))...))))))))”, the Tm falls from 55 °C to 50.8 °C.

Compared with “CGACGTGCGGAATGTGCTG+CAGCACATCATGCACGTCG ((((((((...((((((((+))))))))...))))))))”, “CGACGTGCGGAATGTGCTG+CAGCACATCCAGCACGTCG ((((((((.(.((((((((+)))))))).).))))))))” is higher in Tm: 51.9 °C for the first, 55.1 °C for the second.

Compared with “CGACGTGCGGAATGTGCTG+CAGCACATCGAGCACGTCG ((((((((...((((((((+))))))))...))))))))”, “CGACGTGCGGAATGTGCTG+CAGCACATCTCGCACGTCG (((((((((..((((((((+))))))))..)))))))))” is higher in Tm: 54.6 °C for the first, 55.3 °C for the second.

Compared with “CGACGTGCGGAATGTGCTG+CAGCACATCTGGCACGTCG ((((((((...((((((((+))))))))...))))))))”, “CGACGTGCGGAATGTGCTG+CAGCACATGCGGCACGTCG ((((((((.(.((((((((+)))))))).).))))))))” is higher in Tm: 52.3 °C for the first, 54.3 °C for the second.

Compared with “CGACGTGCGGAATGTGCTG+CAGCACATGCTGCACGTCG ((((((((.(.((((((((+)))))))).).))))))))”, “CGACGTGCGGAATGTGCTG+CAGCACATGGCGCACGTCG (((((((((..((((((((+))))))))..)))))))))” is higher in Tm: 54.7 °C for the first, 58.4 °C for the second.

Compared with “CGACGTGCGGAATGTGCTG+CAGCACATGTCGCACGTCG (((((((((..((((((((+))))))))..)))))))))”, “CGACGTGCGGAATGTGCTG+CAGCACATTAAGCACGTCG ((((((((..(((((((((+)))))))))..))))))))” is lower in Tm: 57 °C for the first, 55.8 °C for the second.

Compared with “CGACGTGCGGAATGTGCTG+CAGCACATTCAGCACGTCG ((((((((.((((((((((+)))))))))).))))))))”, “CGACGTGCGGAATGTGCTG+CAGCACATTGCGCACGTCG (((((((((.(((((((((+))))))))).)))))))))” is higher in Tm: 60.2 °C for the first, 61.2 °C for the second.

Compared with “CGACGTGCGGAATGTGCTG+CAGCACATTGGGCACGTCG ((((((((..(((((((((+)))))))))..))))))))”, “CGACGTGCGGAATGTGCTG+CAGCACATTTAGCACGTCG ((((((((..(((((((((+)))))))))..))))))))” is higher in Tm: 53.5 °C for the first, 55.1 °C for the second.

First: CGACGTGCGGCATGTGCTG+CAGCACATAAGGCACGTCG ((((((((...((((((((+))))))))...))))))))
Second: CGACGTGCGGCATGTGCTG+CAGCACATAATGCACGTCG ((((((((...((((((((+))))))))...))))))))
The Tm of the first is higher: 51.3 °C for the first, 51.1 °C for the second.

First: CGACGTGCGGCATGTGCTG+CAGCACATACGGCACGTCG ((((((((.(.((((((((+)))))))).).))))))))
Second: CGACGTGCGGCATGTGCTG+CAGCACATACTGCACGTCG ((((((((.(.((((((((+)))))))).).))))))))
The Tm of the first is lower: 51.5 °C for the first, 54.2 °C for the second.

Going from “CGACGTGCGGCATGTGCTG+CAGCACATAGCGCACGTCG (((((((((..((((((((+))))))))..)))))))))” to “CGACGTGCGGCATGTGCTG+CAGCACATATGGCACGTCG ((((((((...((((((((+))))))))...))))))))”, the Tm falls from 55.9 °C to 49.5 °C.

Going from “CGACGTGCGGCATGTGCTG+CAGCACATCAAGCACGTCG ((((((((...((((((((+))))))))...))))))))” to “CGACGTGCGGCATGTGCTG+CAGCACATCATGCACGTCG ((((((((...((((((((+))))))))...))))))))”, the Tm falls from 53.6 °C to 51.2 °C.

Compared with “CGACGTGCGGCATGTGCTG+CAGCACATCCTGCACGTCG ((((((((.(.((((((((+)))))))).).))))))))”, “CGACGTGCGGCATGTGCTG+CAGCACATCGCGCACGTCG (((((((((..((((((((+))))))))..)))))))))” is higher in Tm: 53.4 °C for the first, 55.2 °C for the second.

First: CGACGTGCGGCATGTGCTG+CAGCACATCTGGCACGTCG ((((((((...((((((((+))))))))...))))))))
Second: CGACGTGCGGCATGTGCTG+CAGCACATGATGCACGTCG ((((((((..(((((((((+)))))))))..))))))))
The Tm of the first is lower: 51.1 °C for the first, 58.7 °C for the second.

Compared with “CGACGTGCGGCATGTGCTG+CAGCACATGCAGCACGTCG ((((((((.((((((((((+)))))))))).))))))))”, “CGACGTGCGGCATGTGCTG+CAGCACATGCTGCACGTCG ((((((((.((((((((((+)))))))))).))))))))” is lower in Tm: 63.1 °C for the first, 62.7 °C for the second.

First: CGACGTGCGGCATGTGCTG+CAGCACATGGGGCACGTCG ((((((((..(((((((((+)))))))))..))))))))
Second: CGACGTGCGGCATGTGCTG+CAGCACATGTCGCACGTCG (((((((((.(((((((((+))))))))).)))))))))
The Tm of the first is lower: 57.6 °C for the first, 63.5 °C for the second.

Compared with “CGACGTGCGGCATGTGCTG+CAGCACATGTTGCACGTCG ((((((((..(((((((((+)))))))))..))))))))”, “CGACGTGCGGCATGTGCTG+CAGCACATTCTGCACGTCG ((((((((.(.((((((((+)))))))).).))))))))” is lower in Tm: 57.6 °C for the first, 53.1 °C for the second.
